Source: the DeepSol protein solubility set

Experiment: soluble on expression in E. coli; label from the status in PepcDB or PDB records

Row | Sequence | soluble on expression in E. coli
1 | MSLTSFSRLNTNLLQLKSKHSSDNAQHLYVNGNVGSSTEEITSVEYSKLLQLKLIDESLSFQWCNNYTVLSIYSMKETFARKTIYIHFPKPLLNKWFTAVVYESSETTSNLCFDVILKDGIFINLSLPIDFILSRTRQNEYPENWLKVLNPYDFSVRPPQCLFHVDNTFSVVFLKDGGLLGLKRIPLEILNDFELQPVLFNDSSYFQSFTRMFSKYDNHNSAVVSAELLNDKYLVTLTNDATIKIWDLTTYQLNAHFDLKEKNQQVNYGAAGKYMIICGSLLFVYLPAGNGSFQVIQLENTHSSRISFKPLNVNIPLNLSSYSIWSLIDIQLVKSSIVKQSGLNLVLLWKSNTVTKLQLLSFEDSLYSSYKWIDGNSTYLSDLLDDSDLITNGNMEKALLNLKSHYSQSTYDDAQKILNKNNVMVQINDPHNQDYLNNLEALLKELHKQYQEPSTLTILDDEIIVVNSLHMYHHSTYKLDSQLETIFFNIFERKEPSSQLELFLNILHGFSTTITSETLNKISEKFLDMVNGSINPSLSLKNKITIVFQDCLTNGFQSANLSKLLENLNSIDVVEVLSEFIHCDLKVGAFSVIDLLDTDIFLSVLSMESLKQTLSIMDKFIIDILLVFTIVDINYEVFAEKLSKLITLHFNISLWLQVYQIDKLLAISETFGHVTKYNYGAQLKSYSDITDFTTLMVGFVKNSEGHHHHHH | not soluble
2 | MGSDKIHHHHHHMWYKNNSFRFTRRFFMRVRVSAVFEQAGEILCMKYIYGGKEVFALPGGGVDKDIPLQEAIVNEWKEELGIKVDIGDIILIGEAPAGKRHPQTLHVVFEAREIRGTPKVRSDATHSLDVAWVPLEKLSSLPLYPDVGKQLSASFSEEPRRSVAFISNCMERGYW | not soluble
3 | MGSDKIHHHHHHMEQDTSMITWHHSPAHLFVPNAFYIVTASTLCHQPLFNSPQKLHILQSTLFEIMQAYNWRLQAWAVFSNHYHFIAQSPEDSSSLKPLIQRFHSQTARAINVLDGSKGRKVWFQYWDTCLTYEQSYLARLNYVHNNPVKHGASRECRAVSLLFSYMV | not soluble
4 | MCYHLIIDSFIDRISRMHTQRGLEVTTGSIEAVDSINYFHEQVLSSGQNAIQILDSAKKHTDNLLIQTYAAAFYLYAQEDVANEQASDYLQSAFRLLTSANEREKLIFEAVTNWSKRDYANAISLLVTLLERYPRDTLALKFMEWLFYCTGQAFNAEYFLKVCDKCAPENQDESHFLAIHSFALELCGQYSKAKEMAEEAITMNLLTPWAHHTLAHVHLLTSDITGGINRLRDLQKTWEDILPLLKGHNTWHLALFYLANRNEEEVKKLYPHISGALPDTVLEQLDTISLLWRMDMAGLPQDRLLNQVVDHLSTHPLEYYTGFTNAHFIYCLVKSGYKNEADESLKRMKFYACSPSSDALWGDVVLPLCQGIYAFADADYKTALMLMEPVIGECAQLGGSDAQIELFFQTYLLVLIHNKQKDKALQFFTEHLKYYNNTPLSDWWFQSANKA | not soluble
5 | MQQQCDTVSAWQSLRGPGTGGYYLFKTTEGGKTDCTYVKGSNFNDAAQTATYTYGNMGSGNQMTQQTASASISGNAIVVGTDHSEVMYSDGSTCDVVRLNGQIELWIHSSATSNTGNLNSCCTDKFNQEKGSRPEHVVYRSTCPNMPQ | soluble
6 | MAHHHHHHMHAEAAAEAAMPVIATLSSRVVRIMGLNPGYMTLQGSNTYLVGTGQERLLIDSGEGVEGYGHLLQKAVAEESTRLGGPVHISKLLLTHWHGDHIGGVETVRRLFPQVQLLKQPSQYAHTEVDALCQVPPEVVKVEGATLQLVHTPGHTDDHLCAFLQEERALFTSDTVLGTGTSVFSSFRDYMASLHVLERMKPERLYPAHGPVVEDGTARIEEIIRHRHTREKQILQVLCERTHGVSALDSEKGLTVRELVDTIYTTIPAALKTAAGTNVFHHVKKLLNEGRVVVRYAPADLVHFLKDATDYTVFGEGADADVKVIERILTEFRVAAAGVSSGAP | soluble
7 | MHHFSAGRSNSIGLRQSVSDKGIEIVNLLAPKVEMLGFDLLGAEYLLVPSGAILRLYIDIPFAMQPECMVSIDDCERVSREVSAYLDLEEPISGNYTLEVSSPGLDRRLFTLEQFARHHNHLVKVGLKLQQHGSRRLQGKIVRVEQVGGFVVLLVNGVELAVDFNNIDKARIVPDWSALGLAPLEKSKHDTKKMSQGSKKPSNESAARQAVRGVIR | not soluble
8 | MNQYQKTTERKKQAIIQAALHLFKEKGFKGTSIKSIAKAAQVSPVSIYNYFESKESLVDLCVNKLFEEITQEAENILTSEIDFKMKLCQALALCQKKMSHQISVYFKEKTIKDPTFSKLLTKAIVAKKREIYRSYIKLGKDEGVIAKDLSTELILNVMDALNSIGNQLSESENLGEEIEQIHRLFLYGIFGKI | not soluble
9 | MLKNTYIHIPGVGKALEQKIWASGIHTWDEFLEMEDRVLIPSVKKARICEGIKVSSSHLAAKDCFFFSQRLPSAEHWRAYSLFSDSVAFFDIETTGLSPCRDKITVVGIYNGNEVKTYVRGTNLEDLVEEFSRYRLLVSFNGARFDIPFIKSEFPEIEFKQLHIDLMYPLRRIGYGGGLKKIEKLLGICRSEDTDGMDGFDAVRLWKKYEKGDLEALNLLVKYNREDIVNLKTIIELTYPKMVENALKILEHHHHHH | not soluble
10 | MVQDQIRYDILVQDALRGVIRKVLSEVAKAGLPGSHHFFITFLTNAPGVKISTRLKSRYPEQMTIVLQHQFRDLNVSETAFEVTLSFREVSEKLVIPFHSIQVFYDPVAAFEAAFDLPSNLNSKEGENLENIASTPVILSDTQKKEKKFPKEQISKTNKDSSNNDTKQSADVVSLDSFRKK | not soluble
11 | MSFDGFFLHHLTNELKENLLYGRIQKVNQPFERELVLTIRNHRKNYKLLLSAHPVFGRVQITQADFQNPQVPNTFTMIMRKYLQGAVIEQLEQIDNDRIIEIKVSNKNEIGDAIQATLIIEIMGKHSNIILVDRAENKIIESIKHVGFSQNSYRTILPGSTYIEPPKTAAVNPFTITDVPLFEILQTQELTVKSLQQHFQGLGRDTAKELAELLTTDKLKRFREFFARPTQANLTTASFAPVLFSDSHATFETLSDMLDHFYQDKAERDRINQQASDLIHRVQTELDKNRNKLSKQEAELLATENAELFRQKGELLTTYLSLVPNNQDSVILDNYYTGEKIEIALDKALTPNQNAQRYFKKYQKLKEAVKHLSGLIADTKQSITYFESVDYNLSQASIDDIEDIREELYQAGFLKSRQRDKRHKRKKPEQYLASDGTTILMVGRNNLQNEELTFKMAKKGELWFHAKDIPGSHVIIKDNLDPSDEVKTDAAELAAYYSKARLSNLVQVDMIEAKKLHKPSGAKPGFVTYTGQKTLRVTPDQAKILSMKLS | not soluble
12 | SNPSSSGGTTKRFRTKFTAEQKEKMLAFAERLGWRIQKHDDVAVEQFCAETGVRRQVLKIWMHNNKN | soluble
13 | GMLKSKIKEEYVQMDQVDWKPFPAAFSTGGIRWKLLHVSPEMGSWTAIFDCPAGSSFAAHVHVGPGEYFLTKGKMDVRGGKAAGGDTAIAPGYGYESANARHDKTEFPVASEFYMSFLGPLTFVKPDGSPIAVIGWEDAQGAWAA | soluble
14 | MGSDKIHHHHHHMTQFDVLTIGNAIVDIISRCEDQFLEENGIVKGAMNLIDAERATRLYSLMGPAIEASGGSAGNTAAGIASFGGKAAYFGKVAEDELGEIFAHDIRAQGVHYQTMAKGQHPPTARCMIFVTEDGERSMNTYLGACVEFGPEDVEPEVVKQAKVTYFEGYLWDPPRAKQAIVDCARIAHEHGREMSMTLSDSFCVHRYRAEFLDLMRSGTVDIVFANRQEALALYETEDFDAALDQIAKDCKLAAVTMSEEGAMIIRGSERIHVPATTIAELVDTTGAGDLFASGFLYGYTQGRTLEECGKLGCLAAGLVIQQMGPRPLASLQEAAAEAGLI | not soluble
15 | MGSDKIHHHHHHMRWFHKKGELARDGWQSVVDATTPGWEYTGIRIAELGSGESLELNDTGVERIFIPLQGSFDVAHHGQVTHLHGRKSVFDGPTDVLYLPTGQTATLSGQGRVAVAEAPTQEPKEWKYIAPAETPVELRGAGRSSRQVHNFGTPEALDAARLIVCEVITPGENWSSYPPHKHDEHIPGHESKLEEIYYFESAPSRVGGRAEAAEGAFGMFSTYSSPAGEIDINAMVYSGDIALVPFGYHGPAVAAPGYDLYYLNVMAGPDPERIWLINDDPAHAWVRDTWTGQAFDDRLPYENANKEG | not soluble
16 | MSNTKNTSDSQESQQSSRKPQRSQATQTSQASQKSQSSQEPRRPKPMEVLREARAQLAELTGMTAESVSSFEQTEEGWVLEVEVLELERVPDTMSLMASYQVELDAEGQLTGYRRARRYERGRADSRGGRKLAAALEHHHHHH | soluble
17 | MGSDKIHHHHHHMEVTRTDKAVTLRWENEEVSEGTLVFVSSSPSLEANSEPVFKVSNAAKHYTFETKDIPVYFFLQAPNGDKRVVSERILPLESVFNFRDMGGYKTKHGHHVKWGKLYRSSNLVNINQADAALLQKLHIKWICDLRSSSEVQAQPTPEIQGVLNKHIPIGTAKNEKTTLPVSNDKAIYEPLMGESYRVFVQSVDGFKEIFSEILTDAKAGLPFVFHCTAGKDRTGVLAALLLTLLDVPEKTIFDDYAITNRYQDNILQEMGGIVSLFSNGNEKIDLEAFRPMAEARPEYLKIAFDEMKKQFGSVDGYLEKGIGITAEEKAIIQQQLLE | not soluble
18 | MGSDKIHHHHHHMTTSKRVAIIGAGPSGLAQLRAFQSAAAKGEEIPEIVCFEKQDNWGGLWNYTWRTGLDENGEPVHCSMYRYLWSNGPKEGLEFADYSFEEHFGKQIASYPPRAVLFDYIEGRVLKANVRDWIRFSTAVRWIDYNDETGLFKVTVHDHTNDRVYSEEFDHVICASGHFSTPNVPHYEGFETFNGRLVHAHDFRDAREFAGKDILVVGSSYSAEDIGSQCWKYGAKSITSCYRSAPMGFKWPDNWEEKPALVKVDKNTVFFSDGTSREVDAIILCTGYKHFFNFLPDDLRLKTANRLATADLYKGVVYVHNPKMFYLGMQDQWFTFNMFDAQAWWVRDAIMGKIDLSNVTKEQMLADVTERETREEASDDVKYAIRYQADYVKELVAETDYPSFDIDGACEAFFQWKKHKGEDIMAFRNNSYTSVITGTLAPVHHTPWKDALDDSMEAYLRN | not soluble
19 | MAHHHHHHMSTRKEPPKVLKGAAYTECSPISDVSHHKASASKAFLENHYRGMLRDTRSGNTARPVGPRPREPCVDDFVLVKRIGKGAFGEVYLCYKKYDNDKQLYALKRMRKTDMIRKKQISHVRSEKDVMAEAASTNPWVVKLYLSFQDEQYLYMVMEYMPGGDMISWLCIKQRFDVESTRFYIAELCAAVASVHDMFFVHRDIKPDNILLDAKGHIKLTDFGLSKRFAKVGEELLDLEEGNDALCSSNSSANLSNTCGSTCQGPNSVPVVSPHNPHSPTANYNSLTPAGSHASAHPQARRIFESIVGSPGYIAPEILLRQRYGVNCDWWSVGVIMYEMLYGIPPFFSSDTSSTCHKITHWREYLTYPSDRGVPPEATDLLRRLMCDQRDRLDFQGVKEHPFFNDIDWERLRETPPAFVPELSDPLDTHYFPEVEDNTPQQHHQRPEERNAVREVDPRGVIFADYKFNLKR | soluble
20 | MTNRLILFDFDETYYKHRTNQADIPYLKEMKSLLQNITAKNNVITAILTGSTIESVLQKMSKVNMSYKPQHIFSDLSSKMFTWNNCEYIESDEYKNEVLIEPFLLEDILDILKHVSSKHKVEFIPQRIFRENETLYNFYFYSSGDTHLDKTILEDLSQYSKTRDYTMTFNRCNPLAGDPENAYDINFTPKNAGKLYATKILMNKYGVPKELIIGFGDSGNDEAFLSYLDHAMIMSNSQDEEMKSKFKNTKYPYYKGIYTHVREFIEYENV | not soluble
